Experimental data from patent US20240026017A1 (Kyowa Kirin, published 2024).

B1: chKM5908′ mut07 (antibody, V domains shown)
VH: QVQLKQSGPGLVQPSQSLSITCTVSGFSLNNYGVHWVRQPPGKGLEWLGVIWSAGTTVYNAAAISRLSISKDDSKSQVFFKMNSLQAGDTAIYYCAKDGSRYYTAMDYWGQGTSVTVSS
VL: DVVMTQTPLSLPVSLGDQASIFCRSSQSLVHRNGITFFHWYLQKPGQSPKLLIYKVSNRFSGVPDRFSGSGSGTDFTLKISRVAPDDLGVYFCSQGTHVPPTFGGGTKLEIK
B2: chKM5908′ mut08 (antibody, V domains shown)
VH: QVQLKQSGPGLVQPSQSLSITCTVSGFSLNNYGVHWVRQPPGKGLEWLGVIWSAGTTVYNAAFASRLSISKDDSKSQVFFKMNSLQAGDTAIYYCAKDGSRYYTAMDYWGQGTSVTVSS
VL: DVVMTQTPLSLPVSLGDQASIFCRSSQSLVHRNGITFFHWYLQKPGQSPKLLIYKVSNRFSGVPDRFSGSGSGTDFTLKISRVAPDDLGVYFCSQGTHVPPTFGGGTKLEIK
B3: chKM5908′ mut09 (antibody, V domains shown)
VH: QVQLKQSGPGLVQPSQSLSITCTVSGFSLNNYGVHWVRQPPGKGLEWLGVIWSAGTTVYNAAFISRLSISKDDSKSQVFFKMNSLQAGDTAIYYCAKDGSRAYTAMDYWGQGTSVTVSS
VL: DVVMTQTPLSLPVSLGDQASIFCRSSQSLVHRNGITFFHWYLQKPGQSPKLLIYKVSNRFSGVPDRFSGSGSGTDFTLKISRVAPDDLGVYFCSQGTHVPPTFGGGTKLEIK
B4: chKM5908′ mut10 (antibody, V domains shown)
VH: QVQLKQSGPGLVQPSQSLSITCTVSGFSLNNYGVHWVRQPPGKGLEWLGVIWSAGTTVYNAAFISRLSISKDDSKSQVFFKMNSLQAGDTAIYYCAKDGSRYYAAMDYWGQGTSVTVSS
VL: DVVMTQTPLSLPVSLGDQASIFCRSSQSLVHRNGITFFHWYLQKPGQSPKLLIYKVSNRFSGVPDRFSGSGSGTDFTLKISRVAPDDLGVYFCSQGTHVPPTFGGGTKLEIK
B5: chKM5908′ mut11 (antibody, V domains shown)
VH: QVQLKQSGPGLVQPSQSLSITCTVSGFSLNNYGVHWVRQPPGKGLEWLGVTWSAGTTAYNAAFASRLSISKDDSKSQVFFKMNSLQAGDTAIYYCAKDGSRYYTAMDYWGQGTSVTVSS
VL: DVVMTQTPLSLPVSLGDQASIFCRSSQSLVHRNGITFFHWYLQKPGQSPKLLIYKVSNRFSGVPDRFSGSGSGTDFTLKISRVAPDDLGVYFCSQGTHVPPTFGGGTKLEIK
B6: chKM5908′ mut12 (antibody, V domains shown)
VH: QVQLKQSGPGLVQPSQSLSITCTVSGFSLNNYGVHWVRQPPGKGLEWLGVTWSAGTTVYNAAFASRLSISKDDSKSQVFFKMNSLQAGDTAIYYCAKDGSRAYAAMDYWGQGTSVTVSS
VL: DVVMTQTPLSLPVSLGDQASIFCRSSQSLVHRNGITFFHWYLQKPGQSPKLLIYKVSNRFSGVPDRFSGSGSGTDFTLKISRVAPDDLGVYFCSQGTHVPPTFGGGTKLEIK
B7: chKM5908′ mut13 (antibody, V domains shown)
VH: QVQLKQSGPGLVQPSQSLSITCTVSGFSLNNYGVHWVRQPPGKGLEWLGVTWSAGTTVYNAAFASRLSISKDDSKSQVFFKMNSLQAGDTAIYYCAKDGSRYYAAMDYWGQGTSVTVSS
VL: DVVMTQTPLSLPVSLGDQASIFCRSSQSLVHRNGITFFHWYLQKPGQSPKLLIYKVSNRFSGVPDRFSGSGSGTDFTLKISRVAPDDLGVYFCSQGTHVPPTFGGGTKLEIK
B8: chKM5908′ mut14 (antibody, V domains shown)
VH: QVQLKQSGPGLVQPSQSLSITCTVSGFSLNNYGVHWVRQPPGKGLEWLGVTWSAGTTVYNAAFASRLSISKDDSKSQVFFKMNSLQAGDTAIYYCAKDGSRYYTAMDYWGQGTSVTVSS
VL: DVVMTQTPLSLPVSLGDQASIFCRSSQSLVHRNGITFFHWYLQKPGQSPKLLIYKVSNRFSGVPDRFSGSGSGTDFTLKISRVAPDDLGVYFCSQGTHVPPTFGGGTKLEIK
B9: chKM5908′ mut15 (antibody, V domains shown)
VH: QVQLKQSGPGLVQPSQSLSITCTVSGFSLNNYGVHWVRQPPGKGLEWLGVTWSAGTTVYNAAFISRLSISKDDSKSQVFFKMNSLQAGDTAIYYCAKDGSRAYAAMDYWGQGTSVTVSS
VL: DVVMTQTPLSLPVSLGDQASIFCRSSQSLVHRNGITFFHWYLQKPGQSPKLLIYKVSNRFSGVPDRFSGSGSGTDFTLKISRVAPDDLGVYFCSQGTHVPPTFGGGTKLEIK
B10: chKM5908′ mut17 (antibody, V domains shown)
VH: QVQLKQSGPGLVQPSQSLSITCTVSGFSLNNYGVHWVRQPPGKGLEWLGVTWSAGTTVYNAAFISRLSISKDDSKSQVFFKMNSLQAGDTAIYYCAKDGSRYYTAMDYWGQGTSVTVSS
VL: DVVMTQTPLSLPVSLGDQASIFCRSSQSLVHRNGITFAHWYLQKPGQSPKLLIYKVSNRFSGVPDRFSGSGSGTDFTLKISRVAPDDLGVYFCSQGTHVPPTFGGGTKLEIK
B11: chKM5908′ mut18 (antibody, V domains shown)
VH: QVQLKQSGPGLVQPSQSLSITCTVSGFSLNNYGVHWVRQPPGKGLEWLGVIWSAGTTVYNAAAISRLSISKDDSKSQVFFKMNSLQAGDTAIYYCAKDGSRYYTAMDYWGQGTSVTVSS
VL: DVVMTQTPLSLPVSLGDQASIFCRSSQSLVHRNGITFAHWYLQKPGQSPKLLIYKVSNRFSGVPDRFSGSGSGTDFTLKISRVAPDDLGVYFCSQGTHVPPTFGGGTKLEIK
B12: chKM5908′ mut19 (antibody, V domains shown)
VH: QVQLKQSGPGLVQPSQSLSITCTVSGFSLNNYGVHWVRQPPGKGLEWLGVTWSAGTTAYNAAFASRLSISKDDSKSQVFFKMNSLQAGDTAIYYCAKDGSRYYTAMDYWGQGTSVTVSS
VL: DVVMTQTPLSLPVSLGDQASIFCRSSQSLVHRNGITFAHWYLQKPGQSPKLLIYKVSNRFSGVPDRFSGSGSGTDFTLKISRVAPDDLGVYFCSQGTHVPPTFGGGTKLEIK
B13: chKM5908′ mut20 (antibody, V domains shown)
VH: QVQLKQSGPGLVQPSQSLSITCTVSGFSLNNYGVHWVRQPPGKGLEWLGVTWSAGTTVYNAAFASRLSISKDDSKSQVFFKMNSLQAGDTAIYYCAKDGSRAYAAMDYWGQGTSVTVSS
VL: DVVMTQTPLSLPVSLGDQASIFCRSSQSLVHRNGITFAHWYLQKPGQSPKLLIYKVSNRFSGVPDRFSGSGSGTDFTLKISRVAPDDLGVYFCSQGTHVPPTFGGGTKLEIK
B14: chKM5908′ mut21 (antibody, V domains shown)
VH: QVQLKQSGPGLVQPSQSLSITCTVSGFSLNNYGVHWVRQPPGKGLEWLGVTWSAGTTVYNAAFISRLSISKDDSKSQVFFKMNSLQAGDTAIYYCAKDGSRYYTAMDYWGQGTSVTVSS
VL: DVVMTQTPLSLPVSLGDQASIFCRSSQSLVHRNGITFFHWYLQKPGQSPKLLIYKISNRFSGVPDRFSGSGSGTDFTLKISRVAPDDLGVYFCSQGTHVPPTFGGGTKLEIK
B15: chKM5908′ mut22 (antibody, V domains shown)
VH: QVQLKQSGPGLVQPSQSLSITCTVSGFSLNNYGVHWVRQPPGKGLEWLGVIWSAGTTVYNAAAISRLSISKDDSKSQVFFKMNSLQAGDTAIYYCAKDGSRYYTAMDYWGQGTSVTVSS
VL: DVVMTQTPLSLPVSLGDQASIFCRSSQSLVHRNGITFFHWYLQKPGQSPKLLIYKISNRFSGVPDRFSGSGSGTDFTLKISRVAPDDLGVYFCSQGTHVPPTFGGGTKLEIK
notes: also called mAb5-06; mAb 5-06
B16: chKM5908′ mut23 (antibody, V domains shown)
VH: QVQLKQSGPGLVQPSQSLSITCTVSGFSLNNYGVHWVRQPPGKGLEWLGVTWSAGTTAYNAAFASRLSISKDDSKSQVFFKMNSLQAGDTAIYYCAKDGSRYYTAMDYWGQGTSVTVSS
VL: DVVMTQTPLSLPVSLGDQASIFCRSSQSLVHRNGITFFHWYLQKPGQSPKLLIYKISNRFSGVPDRFSGSGSGTDFTLKISRVAPDDLGVYFCSQGTHVPPTFGGGTKLEIK
B17: chKM5908′ mut24 (antibody, V domains shown)
VH: QVQLKQSGPGLVQPSQSLSITCTVSGFSLNNYGVHWVRQPPGKGLEWLGVTWSAGTTVYNAAFASRLSISKDDSKSQVFFKMNSLQAGDTAIYYCAKDGSRAYAAMDYWGQGTSVTVSS
VL: DVVMTQTPLSLPVSLGDQASIFCRSSQSLVHRNGITFFHWYLQKPGQSPKLLIYKISNRFSGVPDRFSGSGSGTDFTLKISRVAPDDLGVYFCSQGTHVPPTFGGGTKLEIK
B18: chKM5908′ mut25 (antibody, V domains shown)
VH: QVQLKQSGPGLVQPSQSLSITCTVSGFSLNNYGVHWVRQPPGKGLEWLGVTWSAGTTVYNAAFISRLSISKDDSKSQVFFKMNSLQAGDTAIYYCAKDGSRYYTAMDYWGQGTSVTVSS
VL: DVVMTQTPLSLPVSLGDQASIFCRSSQSLVHRNGITFFHWYLQKPGQSPKLLIYKVSNKFSGVPDRFSGSGSGTDFTLKISRVAPDDLGVYFCSQGTHVPPTFGGGTKLEIK

The binders below were run against T1, human CC chemokine receptor 1 (human CCR1) (human, UniProt P32246 1-355) (assay: flow cytometry on CHO-S-hCCR1 cells; bound = fluorescence 10 times or more that of isotype control chDNP1).
T1 construct: endogenous on THP-1 cells in the migration assays; also called hCCR1; CHO-S-hCCR1 (expressing cells)
T1 sequence: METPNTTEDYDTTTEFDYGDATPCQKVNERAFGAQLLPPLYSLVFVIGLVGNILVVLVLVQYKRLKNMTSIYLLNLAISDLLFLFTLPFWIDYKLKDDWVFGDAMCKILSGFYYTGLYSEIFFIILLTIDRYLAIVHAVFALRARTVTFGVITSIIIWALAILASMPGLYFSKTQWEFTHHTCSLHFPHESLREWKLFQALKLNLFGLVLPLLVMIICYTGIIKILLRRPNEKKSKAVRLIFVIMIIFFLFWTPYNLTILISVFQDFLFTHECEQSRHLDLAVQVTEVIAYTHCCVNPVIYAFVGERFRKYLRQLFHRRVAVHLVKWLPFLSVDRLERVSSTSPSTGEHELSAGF
Method: The antigen affinity of the chKM5908′ antibody, which is a VL-substituted chimeric antibody, was measured by flow cytometry using the CHO-S-hCCR1 cells produced in Example 2. The cells were collected by centrifugation, the supernatant was removed, and the cells were suspended in PBS (Staining Medium, hereinafter, abbreviated as SM) containing 2% fetal bovine serum (FBS), 0.05% NaN₃, and 1 mM EDTA. Next, the cells were seeded in a 96-well plate so that the number of cells is 1×10⁵ per well, and the chKM5908′ antibody was added at each final concentration of 10,000, 2,000, 400, 80, 16, and 3.2 ng/mL, and the reaction was performed at 4° C. for 60 minutes. After washing the cells with SM, Goat F (ab′)₂ Anti-Human IgG PE (γ chain specific) (Southern Biotech) diluted 500-fold with SM was added and reacted at 4° C. for 60 minutes. After washing the cells with SM, the cells were resuspended in 50 μL of SM, and the fluorescence intensity was measured by the flow cytometry (FACS Canto II, BD Biosciences).
1996 June; 33 (9):759-68, hereinafter, referred to as chDNP1)] were determined to be bound to the human CCR1.

Binding result, binds:
B1
B2
B3
B4
B5
B6
B7
B8
B9
B10
B11
B12
B13
B14
B15
B16
B17
B18
